For the assay, the target named is GOPC, Q9HD26. The assay can be described thus: holdup assay. Set-up: key: below the threshold = too weak to quantify, mostly under pKd 3.1 to 4. The following applies: plain residues with an end cap or a label only (N-terminal biotin on a linker: ado-ado).

These results are taken from publication PMC9482650, “Quantitative fragmentomics allow affinity mapping of interactomes” (Nature Communications, 2022).

B1: ATP2A2, P16615;P16615-3 (peptide)
chain: YLEPVLSSEL
With B1, the negative logarithm of the Kd (pKd) result is on record as “below the threshold”.

B2: TRMT13, Q9NUP7 (peptide)
chain: NHSSSPETTA
Regarding B2, the pKd entry is listed as “below the threshold”.

B3: MYOZ3, Q8TDC0 (peptide)
chain: VRNLPESEEL
Turning to B3, the pKd result is reported as “below the threshold”.

B4: EPHB3, P54753 (peptide)
chain: QMNQTLPVQV
As for B4, the negative-log Kd (pKd) was found to be 3.58.

B5: PLEKHA2, Q9HB19 (peptide)
chain: DDENIRTSDV
Take B5: the pKd was 3.5.

B6: TMEM151B, Q8IW70 (peptide)
chain: RHGSCVETSL
The molecule B6 registered a negative logarithm of the Kd (pKd) of 4.41.

B7: CLDN1, O95832 (peptide)
chain: PAPSSGKDYV
Regarding B7, the pKd entry is on record as “below the threshold”.

B8: RASL11B, Q9BPW5 (peptide)
chain: SAKVRTVTSV
Regarding B8, the pKd worked out at 4.07.

B9: MMP24, Q9Y5R2 (peptide)
chain: YYKRPVQEWV
With B9, the pKd result is on record as “below the threshold”.

B10: RNF146, Q9NTX7 (peptide)
chain: PDGQCTVTEV
B10 gave a pKd of 4.04.

B11: JAG1, P78504 (peptide)
chain: QSLNRMEYIV
Consider B11, for which the negative-log Kd (pKd) result was “below the threshold”.

B12: CCDC134, Q9H6E4 (peptide)
chain: PRISRSQSEL
B12: the pKd entry is recorded as “below the threshold”.

B13: GRIN2A, Q12879 (peptide)
chain: KKMPSIESDV
For the molecule B13, the pKd entry is on record as “below the threshold”.

B14: BPIFA2, Q96DR5 (peptide)
chain: QHKTQLQTLI
In turn, B14 registered a pKd of 4.01.

B15: EFNB1, P52799 (peptide)
chain: QSPANIYYKV
Consider B15, for which the negative-log Kd (pKd) result is “below the threshold”.

B16: ACTN2, P35609 (peptide)
chain: SSALYGESDL
For the molecule B16, the pKd result was “below the threshold”.

B17: TRPV3, Q8NET8 (peptide)
chain: EVEEFPETSV
Turning to B17, the pKd is 4.22.

B18: ASNSD1, Q9NWL6 (peptide)
chain: NLSIEKETKL
For the molecule B18, the pKd result is given as “below the threshold”.

B19: TBC1D10A, Q9BXI6 (peptide)
chain: TSQESEDTYL
For the molecule B19, the pKd entry is “below the threshold”.

B20: TANC1, Q9C0D5 (peptide)
chain: PKRSFIESNV
As to B20, the pKd stood at 3.85.

B21: GPRC6A, Q5T6X5 (peptide)
chain: TLPRKRMSSI
As to B21, the pKd entry is given as “below the threshold”.

B22: MYOZ1, Q9NP98 (peptide)
chain: IPLDGETEEL
On to B22, for which the pKd entry was “below the threshold”.

B23: KCNJ1, P48048 (peptide)
chain: EVNETDDTKM
As for B23, the pKd entry was “below the threshold”.

B24: KIF17, Q9P2E2 (peptide)
chain: SKSNFGSEPL
Take B24: the negative logarithm of the Kd (pKd) result is on record as “below the threshold”.

B25: KCNA1, Q09470 (peptide)
chain: VNKSKLLTDV
Take B25: the negative logarithm of the Kd (pKd) entry is given as “below the threshold”.

B26: GHRHR, Q02643 (peptide)
chain: SAAKVLTSMC
With B26, the pKd entry was “below the threshold”.

B27: RSRC2, Q7L4I2 (peptide)
chain: TSSMRGMDAV
B27: the pKd result is “below the threshold”.

B28: CES3, Q6UWW8 (peptide)
chain: QKNRKAQEDL
Regarding B28, the pKd result was “below the threshold”.

B29: NLGN4X, Q8N0W4 (peptide)
chain: LPHGHSTTRV
As for B29, the pKd worked out at 4.37.

B30: ZNF831, Q5JPB2 (peptide)
chain: DDEDRLVIEI
Consider B30, for which the pKd entry was “below the threshold”.

B31: TGFA, P01135 (peptide)
chain: TACCHSETVV
With B31, the negative-log Kd (pKd) came out at 3.82.

B32: BAZ1A, Q9NRL2 (peptide)
chain: TPPAAKKSRI
Take B32: the negative-log Kd (pKd) was 4.06.

B33: LRRC4B, Q9NT99 (peptide)
chain: SKENVQETQI
In turn, B33 came in with a pKd of 3.99.

B34: PRKD2, Q9BZL6 (peptide)
chain: QGLAERISVL
B34 came in with a pKd of 3.98.

B35: GJD4, Q96KN9 (peptide)
chain: HLRARKSEWV
B35: the pKd result is given as “below the threshold”.

B36: TRAF7, Q6Q0C0 (peptide)
chain: VDSTVKVWTC
Regarding B36, the pKd entry is reported as “below the threshold”.

B37: CLDN14, O95500 (peptide)
chain: HSGYRLNDYV
As to B37, the pKd result is recorded as “below the threshold”.

B38: NLGN2, Q8NFZ4 (peptide)
chain: LPHPHSTTRV
For the molecule B38, the pKd came to 4.28.

B39: CTNNA1, P35221 (peptide)
chain: LSEFKAMDSI
Consider B39, for which the pKd entry is “below the threshold”.

B40: SLC22A12, Q96S37 (peptide)
chain: GNSVLKSTQF
Take B40: the pKd entry is “below the threshold”.

B41: LPXN, O60711 (peptide)
chain: QPCFNKLFPL
For B41, the pKd entry is on record as “below the threshold”.

B42: TRPC5, Q9UL62 (peptide)
chain: GQEEQVTTRL
As to B42, the pKd was 4.83.

B43: IQSEC2, Q5JU85 (peptide)
chain: AKPSRISTVV
For the molecule B43, the pKd was determined as 4.35.

B44: TRIM29, Q14134;Q14134-2 (peptide)
chain: KSGKQTMLVV
Take B44: the pKd result is recorded as “below the threshold”.

B45: ERBB2, P04626 (peptide)
chain: PEYLGLDVPV
Regarding B45, the negative logarithm of the Kd (pKd) entry is on record as “below the threshold”.

B46: MYOZ2, Q9NPC6 (peptide)
chain: DTTVPESEDL
Regarding B46, the pKd entry was “below the threshold”.

B47: ABCA7, Q8IZY2 (peptide)
chain: DDPSTAETVL
For B47, the pKd entry is “below the threshold”.

B48: PDLIM4_iso2, P50479;P50479-1 (peptide)
chain: VYPNAKVELV
For B48, the pKd result was “below the threshold”.
